Experimental data published in patent US20230137139A1, “BIOSYNTHESIS OF CANNABINOIDS AND C[…]” (priority 2020, published 2023).

B1: t808240 (protein)
chain: MGNTTSIGVVRDCLTSAVGGVAAHVAFQDTLLYQTSAVKPYNLNVPVTPAAVTYPQSANEVAAIVKCASDYDYKVQARSGGHSFGNFGLGGQNGAIVIDMKHFSQFSMDESTFIATIGPGTTLGNLDTELYNAGNRAMAHGICPSIRTGGHLTVGGLGPTSRQWGLALDHVEEVEVVLANSSVVRASDTQNQDVLFAIKGAAASFGIVTEFKVRTEEAPGLAVRYSYSFNLGTPAEKAKLAKDWQAYIAQENLTWKFSSNLIIFDGQIILEGIFFGSKEEYDKLNLEKKFPTSEPGTVLVITNWLGMIGHALEDTILRLIGDSPTWFYAKSLGFTPNTLIFDSTIDEFFDYIHKANAGTLAWSVMLSLEGGAINAVPKNATAYGHRDVLFWVQIFVVNPLGPISQTTYGFTDGLYNILARGVPESAGHAYLGCPDPKMPDAQRAYWRNNYPRLEELKRDLDPKDIFHNPQGVRVAS
B2: t808238 (protein)
chain: MWLSTMNGSASRRSDPVSRKIVCDGHASAHEVRTDNEAARDVPSRTAVNKERKQGSGPPGAMQRGFHAAHKPNEMVPQDGPLGRTAQLFRLAPACQSEPTRAPGQPSDLRLRQIPLATEQAARTLARMRPARFTFPYGRAAEDDCYLKKEDEGHDQSHPTSVLVGVPPFTRRCAAAETFKDTRARAPGTQPTDTTSTGASPSWTLSPLLSLSATDDSVPSKMGNGQSTPLQQCLNTVCNGRLGCVAFPSDALYQAAWVKPYNLDVPVTPIAVFKPSSTEDVAGAIKCAVASNVHVQAKSGGHSYANFGLGGQDGELMIDLANLQDFHMDKTSWQATFGAGYRLGDLDKKLQANGNRAIAHGTCPGVGIGGHATIGGLGPMSRMWGSALDHVLSVQVVTADGSIKNASESENSDLFWALRGAGASFGVITKFTVKTHPAPGSVVQYTYKISLGSQAQMAPVYAAWQALAGDPKLDRRFSTLFIAEPLGALITGTFYGTKAEYEATGIAARLPSGGTLDLKLLDWLGSLAHIAEVVGLTLGDIPTSFYGKSLALREEDMLDRTSIDGLFRYMGDADAGTLLWFVIFNSEGGAMADTPAGATAYPHRDKLIMYQSYVIGIPTLTKATRDFADGVHDRVRMGAPSANSTYAGYIDRTLSREAAQEFYWGAQLPRLREVKKAWDPKDVFHNPQSVDPAE

Tests used:
[1] = system: CBCA, THCA, and CBDA production; CBGA residual substrate; assay: In vivo TS activity assay, Example 3 metagenomic CBCAS screen, cultures fed olivetolic acid; assay type: cell-based, S. cerevisiae; conditions: for Mean CBCA / Mean CBDA / Mean THCA: metagenomic CBCAS candidates in S. cerevisiae, secondary screen, quadruplicate; for Mean CBCA / Mean CBDA / Mean THCA / % CBCA / % CBDA / % THCA: fed 1 mM olivetolic acid; for Average CBGA residual substrate: olivetolic acid fed (Table 12); for % CBCA / % CBDA / % THCA: share of terminal cannabinoid product profile
Procedure: (§1) An assay to detect TS activity was conducted as follows: each thawed glycerol stock of candidate CBCAS transformants was stamped into a well of YEP+4% dextrose media. Samples were incubated at 30° C. in a shaking incubator for 2 days. A portion of each of the resulting cultures was stamped into a well of YEP+4% galactose+1 mM olivetolic acid (FIG. 1 Structure 6a). Samples were incubated at 20° C. and shaken in a shaking incubator for 4 days. Every 24 hours during those 4 days, 2% galactose and 1 mM olivetolic acid were spiked into the cultures. Sodium citrate buffer adjusted to pH 5.5 was added to each well at a final concentration of 100 mM. Samples were incubated at 20° C. and shaken in a shaking incubator for 2 days. A portion of each of the resulting production cultures was stamped into a well of phosphate buffered saline (PBS). Optical measurements were taken on a plate reader, with absorbance measured at 600 nm and fluorescence at 528 nm with 485 nm excitation. Samples were incubated at 30° C. in a shaking incubator for 2 days. 100% methanol was stamped into the production cultures in half-height deepwell plates. Plates were heat sealed and frozen. Samples were then thawed for 30 min and spun down at 4° C. A portion of the supernatant was stamped into half-area 96 well plates. CBCA, THCA, and CBDA production in the samples was quantified via liquid chromatography-mass spectrometry (LC-MS).
(§2) To explore whether other putative CBCASs may exist in the broader metagenome, a library of 1072 candidate CBCAS genes was designed using the A. niger CBCAS enzyme identified in Example 1 as a reference. Protein sequences were recoded in silico for expression in S. cerevisiae and synthesized in the integrative yeast expression vector shown in FIG. 5. Each candidate enzyme expression construct was transformed into an S. cerevisiae CEN.PK strain that also expressed a prenyltransferase enzyme capable of catalyzing reaction R^4 in FIG. 2. Strain t616313, expressing GFP, was included in the library screen as a negative control for enzyme activity. Strain t807925, expressing the A. niger enzyme identified in Example 1, was included in the library screen as a positive control for enzyme activity. All candidate enzymes in the library, as well as the enzyme expressed by positive control strain t807925, included an N-terminal MFalpha2 signal peptide (SEQ ID NO: 16) (with a methionine residue added at the N-terminus of the MFalpha2 signal peptide) and a C-terminal HDEL signal peptide (SEQ ID NO: 17).
The library of candidate CBCAS enzymes was assayed for activity in a primary high-throughput screen using the assay described in Example 1. Production of CBCA, THCA, and/or CBDA in the samples was quantified via LC-MS.
(§3) Based on results of the primary screen, 70 strains were carried forward to a secondary screen to confirm activity observed in the primary screen. The experimental protocol for the secondary screen was identical to the primary screen, except that additional technical replicates were included per strain, and replicate production cultures for each strain were separately fed 1 mM olivetolic acid or 1 mM divaric acid. All strains were screened in quadruplicate (FIGS. 10A-10C, Tables 10 and 11).

[2] = system: CBCVA, THCVA, and CBDVA production; CBGVA residual substrate; assay: In vivo TS activity assay, Example 3 metagenomic CBCAS screen, cultures fed divaric acid; assay type: cell-based, S. cerevisiae; conditions: for Average CBGVA residual substrate: divaric acid fed (Table 12); for Mean CBCVA / Mean CBDVA / Mean THCVA: secondary screen, S. cerevisiae, quadruplicate, LC-MS; for Mean CBCVA / Mean CBDVA / Mean THCVA / % CBCVA / % CBDVA / % THCVA: cultures fed 1 mM divaric acid; for % CBCVA / % CBDVA / % THCVA: share of terminal cannabinoid products
Procedure: as §1, §2, §3

Molecule | Mean CBCA [1] | Mean CBDA [1] | Mean THCA [1] | Average CBGA residual substrate [1] | % CBCA [1] | % CBDA [1] | % THCA [1] | Average CBGVA residual substrate [2] | Mean CBCVA [2] | Mean CBDVA [2] | Mean THCVA [2] | % CBCVA [2] | % CBDVA [2] | % THCVA [2]
B1 | 6248.43 µg/L | 0.00 µg/L | 115.70 µg/L | 24393.82 µg/L | 98.18% | 0.00% | 1.82% | 4054.85 µg/L | 4282.13 µg/L | 0.00 µg/L | 888.75 µg/L | 82.81% | 0.00% | 17.19%
B2 | 2934.86 µg/L | 0.00 µg/L | 0.00 µg/L | 63815.30 µg/L | 100.00% | 0.00% | 0.00% | 9247.47 µg/L | 1841.90 µg/L | 0.00 µg/L | 282.10 µg/L | 86.72% | 0.00% | 13.28%
